Laboratory results: paper PMC7713382, “Structural analysis and insight into effector binding of the niacin-responsive repressor NiaR from Bacillus halodurans” (Scientific Reports, 2020)

Key:
[1] = target: T1, BhNiaR (Halalkalibacterium halodurans, UniProt Q9KDJ7); experiment: X-ray crystal structure, co-crystallization, […] Å; format: binding; conditions: 2 mM niacin, 0.1 M Tris-HCl pH 8.5, 15% PEG 6000; Zn2+ in site; C-terminal 3H domain, carboxyl coordinates zinc and H-bonds His83, Tyr112 of second subunit in pocket
T1 construct: gene BH1216; full length, 179 residues; E. coli BL21(DE3) star pLysS, pET-28b(+); N-terminal His-tag removed with PreScission protease; residues 7-179 modelled
T1 sequence (Q9KDJ7 1-179): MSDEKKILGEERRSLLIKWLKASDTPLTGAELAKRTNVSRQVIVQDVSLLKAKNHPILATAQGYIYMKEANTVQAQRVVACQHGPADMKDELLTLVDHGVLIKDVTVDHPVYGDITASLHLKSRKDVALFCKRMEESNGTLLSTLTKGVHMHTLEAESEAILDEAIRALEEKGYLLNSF

[2] = target: niacin-responsive repressor NiaR from Bacillus halodurans (Bacillus halodurans); experiment: SEC-MALS; Superdex-200 10/300 GL, 20 mM Tris-HCl pH 8.0, 200 mM NaCl, 1 mM DTT; 10-12 mg/ml, 0.1 ml injected, 0.5 ml/min
[3] = target: T2, BhNiaR (Bacillus halodurans, UniProt Q9KDJ7 1-179); experiment: EMSA; 1 mM niacin; Zn2+-bound protein; EMSA: 20 mM Tris pH 8.0, 100 mM KCl, 1 mM MgCl2, 1 mM DTT, 5% glycerol, +/- 1 mM niacin; 80 nM DNA, 0-3 µM protein; 30 min at room temperature (Methods) or 277; conditions: protein: recombinant; tags: N-terminal His-tag removed with PreScission protease; chain copies: 2; label: none (SYBR Green stain); blunt
T2 sequence: T1 sequence (Q9KDJ7 1-179)

O=C(O)c1cccnc1 [niacin]
X-ray crystal structure, co-crystallization, 1.8 Å [1]: A niacin molecule is bound to the C-terminal domain of BhNiaR near the metal-binding site.

niacin-responsive repressor NiaR from Bacillus halodurans (natural protein)
stoichiometry N [2]: 2

B1: nifS-nadB promoter 34-bp cognate DNA (type I) (dsDNA)
DNA 1: CTCATTTACATATGTCTTGACATCTATATTTACA
DNA 2: TGTAAATATAGATGTCAAGACATATGTAAATGAG
Kd [3]: ~500 nM
